A protein production outcome set (Wang et al. 2014)

Test: label from the status in PepcDB records

Sequence | protein production
MMMIFAVLGIFDFLRGEDEGESLEKYLRKLEDLLEEEFDTLVRIAGFYAEEGDTREALDYLERAYRVASEMNDEELMAFALDSMGDVYLSDRKVKTAMEYFMEALRIYTSVNSPLRADLREKIKEVEKIREAMDIASINRLREESESGMPEVDLEVIEPLLNRLVDSVQSLTLYEAGSYEDSISQIMEAYQIARDIGDTSTEASLQLLLGLYSLKNEDFDESRRYLKKAEALFRKTNNELGLAVALVLLGTLDFIRNNADGVASSFRAAVEILQKLDEKELESVTLELLNTLYSF | failed
MNQDLSQTFLAITRNSTDLEWLQGALAPLGQVVGADGSLDELLALVDVTFANLVFVGLDREHVVAQAALIEGALEAKPMLAIVALGDGMDNQLVLNAMRAGARDFVAYGSRSSEVAGLVRRLSKRLPAVTPNTQLGGLTVLYGAQGDGDGALLASHLALVVQKSGQQTLLLDLGLPRGDSLALLGLESSFHFGDALRHLRRLDATLIDSAFTSAEAGLRILAYASHDAPLEHTSAAELYMLLSALRQHFQHIVVNLVGQPDSEALRTFVSHCDKLLWCTDQNVLDCRRNLAVLNHWREKGMKLEHARLLVDRYLRTVAPDSETLGKTFGLEVIAVLAYSPEVRLNAKNQGVTLFELAPREALTQSLRTLGERLAKRSQGLPKPKAGWLNRIMGGRLEHHHHHH | failed
MMTLVILLLFLLFCVLVFWISITFSIKYVLIFTAFLFSGLLVYYSFLTIAGLIHRNSKRKDRTLEHYPSVDIFIPAHNEGVVIKDTLEAMAKIEYPGKLTIYLLNDNSQDETPEIGDDFDKAYAHIRHIRVPPGEPKGKSRVLNYGLSISDGEYFCVYDADNQPEPHALRMLVEHAETTEDAVGAVGHVRTVNEKRNWLTRMISLEFQIFQLLMQSGRWLLFQTGSLTGTNMLLRRSALEELGGYDPYAIAEDAELTLRITQKGYLLPIVPESVTWEQEPEHLKILIKQRTRWLQGNLYILEKMFSSLSFFKGKLLVHSLQQVLVYVVFWLFLIISNVWFVIGLLGIFQIQYSIPLLFMWYVAYITYVSQLFSAQSVERTFTPTNIFISVIMYFTYAQLFTYLFIRSLILYLRAKSKKQVIGWDKTVRFKKDK | failed
MNEELIKEKNFSDSVLSSYRMSLDHKKLQNKMIDNMLFRDISGGKKRTFVEEVEDNEEKNNKSAQKCIDGNDKNFIESRKKALENFQQNENNYDCTYKTIKKKNISGCNTTTKLKDVNSSEECQLCLMPNSDSLHGNFPPTFYKLTCDHIFHLMCLYETVIRRECRKTCCICHNELSENDKNEIINKVKLEKKENEKKSKLLFKVMKLQAENKDYPRKDICS | failed
MSSFSLAVRDSSTMLRRNLLHARRYPSLTLNLLLTPVMLLLLFVYIFGDTMSGGAGRSAYIAYIVPGILLMTIGSTTIGTAVSVSTDMNEGIIARFRTMAIHRSSVLFGHVAGSVLQAIMSVVLVGAVGVAMGFRSTDATVLEWLAAFGLLALFALAFTWIAVGMGLGSPNAEAASNNAMPLILLPLISSAFVPLDSMPGWFQPIAEYQPFTPAIETLRGLLLGTEIGNNWWIALAWCLGLTVLGHRWSKAQFNRDPK | failed
MSSKQWRWIPNALTFLRMVLIVPFAGALLEGNYRLSLVIFFVAALTDAFDGFLARHFNWRSRLGAVADPLADKALLISAYLMLTITGVLPLWLFALVLGRDLVIVCGGLAFHYGIGRFDMEPSIPGKINTFVQILVALAIIILLAGLPMQPWVIDTGIWLVAVSALVSGGHYVAVWSLRAWRAKRS | failed
GSLQDNSSYPDEPWRITEEQREYYVNQFRSLQPDPSSFISGSVAKNFFTKSKLSIPELSYIWELSDADCDGALTLPEFCAAFHLIVARKNGYPLPEGLPPTLQPEFIVTD | not failed
MAQQFIDIGANLTDDNYFGNYHGKHYHEEDIDVVLQRAERNGLSHIIITSGCLNDFKKAIEIINKYQNLTNIKLVTTIGVHPTRTNELKQEGYLDELLLLCEKNIDKVVAIGEIGLDYERLQFSDKETQLSGYRTLSILHQKYPYLPFFFHCRKSWSDLCQLNKELGYNGCKGVVHCFDGTEEEMNQILNEGWDIGVTGNSLQSIELLNVMKQIPIERLHIETDCPYCGIKKTSAGFKYLKEKDFGVKVEKYQRNKYVQRRNEPSNIIDIAIIMSSIKHISLFEFVNKVYSNSMNMYFPTMN | not failed
MERILLVLDDTGRGEIAFQKLKKLAEDGLRGEVYILYIREMEVPPFVPEEKELAAYHRLMTQSMKKLEGFKNQLEKAGLKVSDVSVVFGKYADRLLLVEKQIKPDLIVVGFKGGLLKRVIGGFFGKDPCEVLLKKSKASLLICR | not failed
RALRRRGGDAAAKLAGLVLIAPAPDFTEALMWKGFSPEIRAEIETKGVWHRPSEYGEPYPITKALIEDGRNHLVLDGMIEVGCPVRILQGKQDEDVPWRHAFELAERLPTDDVVLTMIQDGDHRLSRPQDIARMLAAVEE | failed
MDSSSLEQELRWMKLVWEEAPGDKTEGPLTSPGWSTLFQAVWWGAPSLVMQLLRQGSSVEERDHTGRTPLHLAVMRGHAPLVRLLLQRGALAGAADHTGRTPLHEAAWHGHSNVAELLLRRGASAAACSQTGLTPLHGAAALGRTLLVTSFTVASDSGSDVKDVRGWTAAHWAAACGQLAVLELLSAGGNADLDGALLVSAIAGSTSSLQLLLTLGAKVDTQDSTGATALGLAAGLGHHQMLFFLCCLKKKQERKTHCWDWPLANLDPLEEQKLQELSIPRNLASVPAGGWTPSPGYIFRTVDTFVHGQLMPTEERTTECSLAVSVDLISVRDCSPSPPAGFPPVSALTIHPRADGLAQRN | failed
MSFLKPKTHIEKGDVVILYLSVSSMHAIEAVPEIVNKKGETIPHIFQTNYGSLKVENIIGVEYGSKVELSKGWAHVLQPTPELWTQTLPHRTQIIYTPDISMIIHQLEVRPGAVVVESGTGSGSLSHYFLRALKPTGHLHTFDFHEARADQARDEFRRHGIADFVTVYHRDVCNLGFGAELDGKADAVFLDLPAPDLAVPHAFKALKLSGGRFCSFSPCIEQSQRCIQELTKLGFNEIVSLEVLQQENVVKTRTLPVIDLEFLKLPKTDETTAATNALESKAPKEVKKYLTSSNPQTLPGHTGFLTFATLPPNIPKA | failed
MKRGRRASPAAGQHFKVLACEPCVSRRGIYTTLSLQLQKRALQGLQGGAGRRDLSLDRKGFHGLFLRCPFAALRCCQLRLLLGELLLSIFNLLLYFLDRIIEGRLARTANAATTTCCTSLAAFGGSLIRAFLCLSGGRRSSSRLGCFGVGRLDRDRQRAGVAVQCRSIDGSHDGLLGF | failed
MKKRIKELTDLLNRYRYDYYTKDAPSVSDSDYDKLYRELVTLEQSYPEYVLQDSPTQQVGGTILKGFEKYRHQYPLFSLQDAFSREELDAFDKRVKAEFPNATYLAELKIDGLSISLSYENGFLQVGATRGDGNIGENITENIKKIKDIPYQLSEPLTITVRGEAYMSRQSFKAINEARQENGETEFANPRNAAAGTLRQLDTSVVAKRQLATFLYQEASPTARNQQNEVLAELADLGFSVNPYYQLTSSMDEIWDFIKTIEAKRDQLAYDIDGVVIKVNSLAMQEELGFTVKAPRWAIAYKFPAEEKEAEILSVDWTVGRTGVVTPTANLTPVQLAGTTVSRATLHNVDYIAEKDIRIGDTVIVYKAGDIIPAVLNVVMSKRNQQEVMLIPKLCPSCGSELVHFEDEVALRCINPLCPSLIQRSLEHFASRDAMNITGLGPAIVEKLFLAGFVHDVADIYQLTKEDFMQLDGIKEKSADKLLAAIEASKSNSAEKLLFGLGIRHIGSKVSRLILEVYGDISALLTAKEEEIARIDGLGSTIAQSLTQYFEQKTAAILVDELKTAGVNMHYSGQKVNSDAALFGLTVVLTGKLNQLNRNEAKDKLEALGAKVTGSVSKKTDLVIAGSDAGSKLEKAKSLGIRIEDEDWLRQL | failed
MGGITMTAVVSNRDKINFHEVADHYHSNKIIFGIKFLKNWALERLASCAPVPSWRAKLHKMRGVNIGENVYIGYDVIFDRIHPEMITVGDYAEIGDRCILSAHSRGSLTTRQAYPRSIAPIKIGRGVSVNPGCIITQGVEIGDNSIIGVGSVVSRNISPNSLALGYPAKVIKKLDGLEHHHHHH | not failed
